Target: T1, recombinant GST-Scd6 (S. cerevisiae, UniProt P45978 1-349)
T1 sequence (looked up): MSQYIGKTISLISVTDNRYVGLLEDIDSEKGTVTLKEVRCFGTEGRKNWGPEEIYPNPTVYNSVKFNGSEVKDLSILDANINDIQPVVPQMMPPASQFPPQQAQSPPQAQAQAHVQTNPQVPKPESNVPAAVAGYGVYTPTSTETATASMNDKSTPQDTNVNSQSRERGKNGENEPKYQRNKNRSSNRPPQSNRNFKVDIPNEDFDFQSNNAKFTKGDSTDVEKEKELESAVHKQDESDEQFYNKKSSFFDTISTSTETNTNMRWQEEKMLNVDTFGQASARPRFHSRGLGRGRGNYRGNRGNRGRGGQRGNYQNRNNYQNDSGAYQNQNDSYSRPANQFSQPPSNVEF
Assay: pull-down

binding result: binds
B1: recombinant purified His-Hmt1 (enzyme, S. cerevisiae, UniProt P38074 1-348, looked up)
chain: MSKTAVKDSATEKTKLSESEQHYFNSYDHYGIHEEMLQDTVRTLSYRNAIIQNKDLFKDKIVLDVGCGTGILSMFAAKHGAKHVIGVDMSSIIEMAKELVELNGFSDKITLLRGKLEDVHLPFPKVDIIISEWMGYFLLYESMMDTVLYARDHYLVEGGLIFPDKCSIHLAGLEDSQYKDEKLNYWQDVYGFDYSPFVPLVLHEPIVDTVERNNVNTTSDKLIEFDLNTVKISDLAFKSNFKLTAKRQDMINGIVTWFDIVFPAPKGKRPVEFSTGPHAPYTHWKQTIFYFPDDLDAETGDTIEGELVCSPNEKNNRDLNIKISYKFESNGIDGNSRSRKNEGSYLMH

From article PMC5100564 (Nucleic Acids Research, 2016)
